Measured values: patent publication US20100260765A1 (AstraZeneca / MedImmune, published 2010)
Substitutions are numbered along the chain they refer to.

B1: 33D5 (antibody, V domains shown)
VH: QVQLVQSGAEVKKPGASVKVSCKASGYTFGSYDINWVRQATGQGLEWMGWMNPNSGNTGYAQKFQGRVTLTRNTSIRTVYMELSSLRSEDTAVYYCARGGYSNLGWFDPWGQGSLVTVSS
VL: DIQMTQSPSSVSVSVGDRVTITCRASQGISSWLAWYQQKPGKAPKLLIYAASSLQSGVPSRFSGSGSGTDFTLTISSLQPEDFATYYCQQANSFPFTFGPGTKVDIK
B2: 32G7 (antibody, V domains shown)
VH: EVQLVESGGGLVKPGGSLRLSCAASGFTISSYSMNWVRQAPGKGLEWVSFISSRSNYIYYADSVKGRFTISRDNAKNSLYLQMNSLRAEDTAVYYCSKDDWFEELWGQGTLVTVSS
VL: DIQMTQSPSSLSASVGDRVTITCRASQDIRNDLGWYQQKPGKAPKRLIYAASSLQSGVPSRFSGSGSGTEFTLTISSLQPEDFATYYCLQHNSFPWTFGQGTKVEIK
B3: 33B1 (antibody, V domains shown)
VH: B2 VH with I29F, S33T, S52D, N56S
VL: B2 VL with D28G, A51T, Q90H
B4: 29D4 (antibody, V domains shown)
VH: QLQLQESGPGLVKPSETLSLTCTVSGGSISSRSNYWGWIRQPPGKGLEWIGTIYYSGHTYYNPSLKSRVSISVDTSKNQFSLKLSSVTATDTALYYCARQQLVLYYFEYWGQGTLVTVSS
VL: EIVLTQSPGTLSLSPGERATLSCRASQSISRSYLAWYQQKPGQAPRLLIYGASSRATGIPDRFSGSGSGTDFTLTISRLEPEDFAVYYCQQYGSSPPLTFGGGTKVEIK
B5: 30E3 (antibody, V domains shown)
VH: EVQLLESGGGLVQPGGSLRLSCAASGFTFSNYALSWVRQAPGKGLEWVSAISGSGRNTYYADSVKGRFTLSRDNSKNTLFLQMNSLRAEDTAVYYCAKASGDNWGQGTLVTVSS
VL: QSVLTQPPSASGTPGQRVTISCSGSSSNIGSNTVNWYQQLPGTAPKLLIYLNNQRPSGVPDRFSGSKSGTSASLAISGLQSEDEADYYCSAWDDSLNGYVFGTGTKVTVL
B6: 1G6 (antibody, V domains shown)
VH: EVQLLESGGGLVQPGGSLRLSCAASGFTFSSYAMSWVRQAPGKGLEWVSAISGGGGNTYYADSVKGRFTISRDNSKNTLYLQMNSLRAEDTAVYYCSKVATDYWGQGTLVTVSS
VL: QPVLTQSSSASASLGSSVKLTCTLSSGHSSYIIAWHQQQPGKAPRYLMKLEGSGSYNKGSGVPDRFSGSSSGADRYLTISNLQFEDEADYYCETWDSYTVVFGGGTKLTVL
B7: 29A11 (antibody, V domains shown)
VH: B5 VH with L34M, S35N, S54G, R56G, L70I, F80Y, S85R, N103D
VL: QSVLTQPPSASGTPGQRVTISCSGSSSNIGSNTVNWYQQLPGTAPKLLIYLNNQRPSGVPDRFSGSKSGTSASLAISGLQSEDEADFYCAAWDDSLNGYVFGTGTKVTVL

How the values were obtained:
Assay in all cases: cell-based or functional assay
KDR [1] = molecular target: T1, KDR (human, UniProt P35968 20-1356)
KDR [2] = molecular target: T1, KDR; remark: listed apart in the source
KDR [3] = molecular target: T1, KDR; remark: listed apart in the source
KDR [4] = molecular target: T1, KDR; remark: listed apart in the source
KDR [5] = molecular target: T1, KDR; remark: listed apart in the source

T1 sequence (P35968 20-1356): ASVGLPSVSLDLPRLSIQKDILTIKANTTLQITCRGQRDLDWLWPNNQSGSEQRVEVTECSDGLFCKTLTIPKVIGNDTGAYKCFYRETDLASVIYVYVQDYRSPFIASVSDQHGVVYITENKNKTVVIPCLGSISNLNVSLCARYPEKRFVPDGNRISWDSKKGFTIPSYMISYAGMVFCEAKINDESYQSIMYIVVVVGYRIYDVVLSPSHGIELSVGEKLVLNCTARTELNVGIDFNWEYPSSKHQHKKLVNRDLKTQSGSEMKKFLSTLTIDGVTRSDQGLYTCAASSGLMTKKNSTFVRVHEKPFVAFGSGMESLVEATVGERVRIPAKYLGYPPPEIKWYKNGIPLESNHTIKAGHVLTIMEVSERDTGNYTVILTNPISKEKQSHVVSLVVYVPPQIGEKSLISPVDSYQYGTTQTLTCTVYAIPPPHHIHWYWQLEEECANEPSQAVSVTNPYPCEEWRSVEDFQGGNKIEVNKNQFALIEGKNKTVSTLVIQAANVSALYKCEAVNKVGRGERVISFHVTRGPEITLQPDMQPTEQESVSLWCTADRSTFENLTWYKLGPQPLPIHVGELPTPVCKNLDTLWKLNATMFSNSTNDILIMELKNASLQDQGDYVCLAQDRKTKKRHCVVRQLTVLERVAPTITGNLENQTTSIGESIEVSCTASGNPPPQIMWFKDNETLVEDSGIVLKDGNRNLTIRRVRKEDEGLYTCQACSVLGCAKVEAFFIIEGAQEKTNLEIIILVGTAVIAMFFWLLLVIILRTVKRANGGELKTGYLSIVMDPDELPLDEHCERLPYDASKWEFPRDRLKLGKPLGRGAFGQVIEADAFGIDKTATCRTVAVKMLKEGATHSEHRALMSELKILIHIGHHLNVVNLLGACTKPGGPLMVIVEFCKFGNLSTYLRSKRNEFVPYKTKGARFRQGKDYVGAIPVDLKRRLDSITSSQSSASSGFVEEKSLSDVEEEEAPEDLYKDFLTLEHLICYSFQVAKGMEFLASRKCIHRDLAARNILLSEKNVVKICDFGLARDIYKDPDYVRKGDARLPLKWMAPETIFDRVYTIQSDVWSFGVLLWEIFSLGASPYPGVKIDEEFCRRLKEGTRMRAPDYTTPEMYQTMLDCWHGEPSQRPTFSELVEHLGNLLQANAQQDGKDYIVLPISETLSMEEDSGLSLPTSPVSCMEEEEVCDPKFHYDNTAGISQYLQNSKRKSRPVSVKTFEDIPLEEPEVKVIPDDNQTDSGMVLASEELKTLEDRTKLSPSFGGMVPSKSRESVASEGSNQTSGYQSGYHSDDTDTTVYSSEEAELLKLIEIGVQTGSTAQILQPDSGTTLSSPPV

Binder | % of Max VEGF KDR pTyr Activity (at 133 nM antibody concentration), Average (KDR [1]) [%] | % of Max VEGF KDR pTyr Activity (at 133 nM antibody concentration), N = 1 (KDR [1]) [%] | % of Max VEGF KDR pTyr Activity (at 133 nM antibody concentration), N = 2 (KDR [1]) [%] | % Inhibition of VEGF165-mediated 6-keto Prostaglandin F1α release at 133 nM Antibody Concentration, Average (KDR [2]) [%] | % Inhibition of VEGF165-mediated 6-keto Prostaglandin F1α release at 133 nM Antibody Concentration, N = 1 (KDR [2]) [%] | % Inhibition of VEGF165-mediated 6-keto Prostaglandin F1α release at 133 nM Antibody Concentration, N = 2 (KDR [2]) [%] | Activity at 133 nM (% Inhibition), 24-hour Pre-incubation at 37° C., Average (KDR [3]) [%] | Activity at 133 nM (% Inhibition), 24-hour Pre-incubation at 37° C., N = 1 (KDR [3]) [%] | Activity at 133 nM (% Inhibition), 24-hour Pre-incubation at 37° C., N = 2 (KDR [3]) [%] | Activity at 133 nM (% Inhibition), 1-hour Pre-incubation at 4° C., Average (KDR [4]) [%] | Activity at 133 nM (% Inhibition), 1-hour Pre-incubation at 4° C., N = 1 (KDR [4]) [%] | Activity at 133 nM (% Inhibition), 1-hour Pre-incubation at 4° C., N = 2 (KDR [4]) [%] | Activity at 133 nM Antibody Concentration (% Survival Inhibition), Average (KDR [5]) [%] | Activity at 133 nM Antibody Concentration (% Survival Inhibition), N = 1 (KDR [5]) [%] | Activity at 133 nM Antibody Concentration (% Survival Inhibition), N = 2 (KDR [5]) [%]
B1 | 17 | 20 | 15 | 36 | 15 | 57 | -15 | 8 | -38 | 49 | 39 | 60 | 5 | 13 | -2
B2 | 9 | 11 | 6 | 76 | 37 | 115 | 57 | 36 | 77 | 79 | 79 | 79 | 69 | 70 | 67
B3 | 7 | 7 | 7 | 95 | 76 | 114 | 85 | 88 | 82 | 87 | 86 | 88 | 73 | 80 | 66
B4 | 13 | 15 | 12 | 95 | 72 | 119 | 80 | 75 | 85 | 68 | 64 | 73 | 85 | 85 | 85
B5 | 10 | 11 | 8 | 24 | 15 | 33 | 83 | 69 | 97 | 33 | 29 | 37 | -16 | -5 | -27
B6 | 13 | 17 | 10 | 49 | 12 | 86 | 36 | 25 | 47 | 43 | 35 | 50 | 0 | 9 | -10
B7 | 12 | 15 | 10 | 25 | 8 | 41 | 23 | 19 | 27 | 32 | 30 | 33 | -2 | 6 | -10
